Target: MtMce4A_(39-140) (Mycobacterium tuberculosis)
Assay: SEC-MALS

Substance MtMce4A_(39-140) (domain or fragment) has a stoichiometry N of 2.

— doi:10.1101/2020.09.29.317909
